Experimental data: US7807162B2, “Single domain VHH antibodies against von Willebrand factor” (Ablynx N.V., priority 2005, dated 2010)
“And” between values parts separate entries of the source, which are not always exact repeats. Identical values can stand only once.

Legend:
[1] = system: cyclic flow reductions (CFRs) in injured, stenosed femoral artery; assay: Folts thrombosis model in baboons: length/inhibition of cyclic flow reductions (CFRs); format: in vivo, baboon (Papio ursinus)
Description: The study protocol that was applied is the original Folts model and some modifications described below (Folts J D, et al, Circulation. 1976; 54:365-370). Healthy male or female baboons (Papio ursinus) were used. The animals were 8-17 kg of weight and were disease-free for at least 2 weeks prior to use. The baboons were fed with dry standard food only. The baboons were used at different time points. […] Animals were anaesthetized and body temperature is maintained at 37° C. with a heating table. A segment of a femoral artery was dissected free from surrounding tissue. A shunt was placed between the femoral vein and femoral artery to obtain high shear rates. The mean and phasic blood flow was recorded continuously throughout the experiment. Baseline flow was recorded for 20 minutes. […] A clamp was placed over the injured site to create an external stenosis. A gradual decline in blood flow due to platelet adhesion and aggregation was observed. When flow was reduced to zero, blood flow was restored by opening the clamp to dislodge the platelet-rich thrombus. This repetitive pattern of decreasing blood flow following mechanical restoration is referred to as cyclic flow reductions (CFRs). Additional endothelial injury was repeated if needed to finally obtain stable CFRs in these baboons. The number of times the thrombus needed to be dislodged determines the number of CFRs. FIG. 24 illustrates blood flow pattern during the Folts model in baboons. […] This procedure was repeated for several times with escalating doses of the test substance. The anti-thrombotic effect was quantified by comparing the length of CFRs before and after drug administration. When full inhibition of CFRs was observed, a new injury was applied in order to confirm that the inhibition was an effect of the treatment but not of a natural healing phenomenon.

[2] = system: platelet adhesion to collagen type III; assay: Inhibition of platelet adhesion by nanobodies in a flow (perfusion) chamber; format: cell-based, human; details: for % Platelet adhesion at 2 μg/ml: 2 μg/ml nanobody, human blood, collagen type III, wall shear rate 1600 s^−1
Description: The protein samples were analysed in a perfusion chamber. Thermanox coverslips (Nunc) were soaked overnight in 80% ethanol, rinsed thoroughly with distilled water and air-dried. Human placental collagen type III (Sigma) was solubilized in 0.05 mol/l acetic acid and sprayed on the coverslips at a final density of 30 μg/cm^2 with a retouching airbrush. After spraying the coverslips were blocked with 1% human albumin solution in PBS for at least 1 hour at RT. Perfusions were performed with a single-pass perfusion chamber under non-pulsatile flow conditions using a modified small perfusion chamber with a slit height of 0.1 mm and a slit width of 2 mm. Blood was obtained by venipuncture from healthy volunteers and anti-coagulated with Penta/PPACK. Triplicate coverslips were inserted into the chamber. […] After a perfusion run, the coverslip was taken from the chamber, rinsed in Hepes buffered saline (10 mM Hepes, 150 mM NaCL, ph 7.4), fixed in 0.5% glutaraldehyde in PBS, dehydrated in methanol and stained with May-Grünwald and Giemsa (Riedel de Haën). Platelet deposition was evaluated as platelet surface coverage using light microscopy and computer-assisted analysis.

[3] = number of experiments with inhibition / total number of independent repeats

## CC(=O)Oc1ccccc1C(=O)O [Aspegic]
[1]; Aspegic final dose 1 mg/kg, individual baboons 3, 4, 5, 1 mg/kg
  Length of CFRs: 149 s and 164 s and 135 s
[1]; Aspegic final dose 2.5 mg/kg, individual baboons 3, 4, 5, 2.5 mg/kg
  Length of CFRs: 102 s and 325 s and 115 s
[1]; Aspegic final dose 5 mg/kg, individual baboons 3, 4, 5, 5 mg/kg
  Length of CFRs: 102 s and 1800 s and 245 s
[1]; Aspegic final dose 10 mg/kg, individual baboons 3, 4, 5, 10 mg/kg
  Length of CFRs: 113 s and 905 s and 156 s
[1]; Aspegic final dose 20 mg/kg, individual baboons 3, 4, 5, 20 mg/kg
  Length of CFRs: 125 s and 657 s and 169 s
[1]; Aspegic final dose 40 mg/kg, individual baboons 3, 5, 40 mg/kg
  Length of CFRs: 110 s and 145 s
[1]; Aspegic final dose 80 mg/kg, baboon 3
  Length of CFRs: 129 s
[1]; Aspegic-treated, after Epinephrin, baboon 4
  Length of CFRs: 161 s
[1]; baboon 3 and 5, doses as high as 80 and 40 mg/kg respectively
  Inhibition of CFRs: no inhibition of CFRs could be obtained
[1]; baboon 4
  dose at which full inhibition of CFRs was obtained: 5 mg/kg
[1]; baboon 4, higher doses and upon new injury, CFRs returned
  mean length of the CFRs versus before administration: 3-4 times
[1]; [3]
  Inhibition of CFRs: 0/3
  Inhibition of CFRs after administration of Epinephrin: 0/1
  Inhibition of CFRs after new injury: 0/3

B1: 14F8: anti-vWF nanobody, SEQ ID NO: 66 (protein)
VHH: AVQLVESGGGLVQAGESLRLSCTSSGRAFSYYNTGWFRQAPGKEREFVAAISWSGGLTYYADSVKGRFTISRDNAKDMVYLQMASLKPEDTAVYYCAANRRQKTVQMGERAYDYWGQGTQVTVSS
[2]
  % Platelet adhesion at 2 μg/ml: 51 ± 10%

B2: 12B1: anti-vWF nanobody, SEQ ID NO: 61 (protein)
VHH: QVQLVESGGGLVQAGGSLRLSCAASGRTFSNYGMGWFRQAPGKEREFVTSISWSGTYTAYSDNVKGRFTISRDNAKNTVYLQMDSLKPEDTAVYYCAAQSRYRSNYYDHDDKYAYWGQGTQVTVSS
[2]
  % Platelet adhesion at 2 μg/ml: 56 ± 3%

B3: 12E3: anti-vWF nanobody, SEQ ID NO: 64 (protein)
VHH: EVQLVESGGGLVQAGGSLRLSCAASGRTFNNYGMGWFRQAPGKEREFVTSISWSGSYTAYADNVKGRFTISRDNAKNTVYLQMDSLKPGDTAVYYCAAQSRYSSNYYDHDDKYAYWGQGTQVTVSS
[2]
  % Platelet adhesion at 2 μg/ml: 54 ± 1%

B4: 12A2-3a-12A2 (protein)
VHH: QVKLEESGGGLVQAGGALRLSCAASGRTFSYNPMGWFRQAPGKERDLVAAISRTGGSTYYPDSVEGRFTISRDNAKRMVYLQMNNLKPEDTAVYYCAAAGVRAEDGRVRTLPSEYTFWGQGTQVTVSSAAAEVQLVESGGGLVQAGGALRLSCAASGRTFSYNPMGWFRQAPGKERDLVAAISRTGGSTYYPDSVEGRFTISRDNAKRMVYLQMNNLKPEDTAVYYCAAAGVRAEDGRVRTLPSEYTFWGQGTQVTVSS
[2]; 0.1 μg/ml nanobody, Table 23
  % Platelet adhesion: 74 ± 5%
[2]; 0.2 μg/ml nanobody, Table 23
  % Platelet adhesion: 50 ± 3%
[2]; 0.3 μg/ml nanobody, Table 41
  % Platelet adhesion: 10 ± 8%
[2]; 0.4 μg/ml nanobody, Table 23
  % Platelet adhesion: 33 ± 0%
[2]; 0.6 μg/ml nanobody, Table 41
  % Platelet adhesion: 4 ± 3%

B5: 12D11: anti-vWF nanobody, SEQ ID NO: 63 (protein)
VHH: AVQLVDSGGGLVQAGGSLRLSCTASERTTFSSYTLGWFRQAPGKEREFVGGISWSGVSTDYAEFAKGRFTISRDHAANTVYLEMNSLKPEDTAVYYCAALGRYRSNWRNIGQYDYWGQGTQVTVSS
[2]
  % Platelet adhesion at 2 μg/ml: 61 ± 7%

B6: 12A5: anti-vWF nanobody, SEQ ID NO: 60 (protein)
VHH: AVQLVESGGGLVQPGGSLRLSCLASGRIFSIGAMGMYRQAPGKQRELVATITSGGSTNYADPVKGRFTISRDGPKNTVYLQMNSLKPEDTAVYYCYANLKQGSYGYRFNDYWGQGTQVTVSS
[2]; 0.2 μg/ml nanobody, Table 15
  % Platelet adhesion: 50 ± 7%
[2]; 0.4 μg/ml nanobody, Table 15
  % Platelet adhesion: 27 ± 10%
[2]; 0.6 μg/ml nanobody, Table 15
  % Platelet adhesion: 2 ± 2%
[2]
  % Platelet adhesion at 2 μg/ml: 10 ± 3%
[2]; perfusion chamber at high shear rate
  inhibition of platelet adhesion to collagen type III: clearly inhibit platelet adhesion
[2]; tested at 0.2, 0.4 and 0.6 μg/ml, same donor
  concentration with full inhibition of platelet adhesion: 0.6 µg/mL

B7: 12C9: anti-vWF nanobody, SEQ ID NO: 65 (protein)
VHH: AVQLVESGGGLVQPGGSLKLSCATSGSIFSSSAMAWYRQASGKQRELVATITSGGRTSYADSVKGRFTISRDNAKNTVYLQMNSLKPEDTAVYDCNFVVDGKRAPWGQGTQVTVSS
[2]
  % Platelet adhesion at 2 μg/ml: 68 ± 8%
